Experimental data: publication PMC8786652 (Cell reports, 2022)

B1: CV3-13 (hIgG1) (antibody, V domains shown)
VH: QVQLQQSGPGLVKPSQTLSLTCTVAGGSISSGTYYWSWIRQPAGKGLEWIGRIYTSGSANYNPSLKSRVTISVDTSKNQFSLRLSSVTAEDTAVYYCAREYSSSYYYFYYMDVWGKGTTVTVSS
VL: AIRMTQSPSSLSASVGDRVTITCQASQDISNYLNWYQQKPGKAPKLLIYVASNLETGVPSRFSGSGFGTDFTFTISSLQPEDIATYYCQQFDNLPYTFGQGTKLEIK
B2: CV3-13 […] (hIgG1) (antibody, V domains shown)
VH: B1 VH
VL: B1 VL
B3: CV3-13 LALA (hIgG1) (antibody, V domains shown)
VH: B1 VH
VL: B1 VL

How the values were obtained:
[1] = biological target: SARS-CoV-2 S1 domain C-His tag protein, from HEK293 cells (SARS-CoV-2, Wuhan-Hu-1 (strain not …, UniProt P0DTC2)); test: SPR
[2] = biological target: SARS-CoV-2 Spike on CEM.NKr-Spike cells (SARS-CoV-2, Wuhan-Hu-1 (assumed for the …, UniProt P0DTC2)); test: flow cytometry on cells
[3] = biological target: SARS-CoV-2 Spike WT (Wuhan-Hu-1 reference strain) (SARS-CoV-2, Wuhan-Hu-1, UniProt P0DTC2); test: flow cytometry on cells

Binder | binding result [1] | binding result [2] | binding result [3]
B1 | binds | binds | binds
B2 |  | binds | binds
B3 |  | binds | binds
